According to article PMC5957534:

Legend:
Assay in all cases: DNA electrochemistry
StXPB1 = molecular target: T1, StXPB1 (Sulfolobus tokodaii, UniProt Q971U1 1-543)
T1 sequence: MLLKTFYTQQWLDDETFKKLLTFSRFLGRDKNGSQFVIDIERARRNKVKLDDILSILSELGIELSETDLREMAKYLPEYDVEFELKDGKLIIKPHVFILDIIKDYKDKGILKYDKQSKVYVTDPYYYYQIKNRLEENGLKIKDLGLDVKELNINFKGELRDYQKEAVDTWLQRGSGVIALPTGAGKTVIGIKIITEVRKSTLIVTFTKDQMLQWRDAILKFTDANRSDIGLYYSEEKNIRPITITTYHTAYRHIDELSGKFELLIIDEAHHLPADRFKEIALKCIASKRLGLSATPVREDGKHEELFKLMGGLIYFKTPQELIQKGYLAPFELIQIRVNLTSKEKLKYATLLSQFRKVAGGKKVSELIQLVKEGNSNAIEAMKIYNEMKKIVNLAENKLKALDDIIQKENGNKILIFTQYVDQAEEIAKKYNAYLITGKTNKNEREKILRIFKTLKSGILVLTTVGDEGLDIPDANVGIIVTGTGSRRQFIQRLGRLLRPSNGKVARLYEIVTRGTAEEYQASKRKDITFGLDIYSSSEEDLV

StXPB2 = molecular target: T2, StXPB2 (Sulfolobus tokodaii, UniProt Q970I2 1-439)
T2 sequence: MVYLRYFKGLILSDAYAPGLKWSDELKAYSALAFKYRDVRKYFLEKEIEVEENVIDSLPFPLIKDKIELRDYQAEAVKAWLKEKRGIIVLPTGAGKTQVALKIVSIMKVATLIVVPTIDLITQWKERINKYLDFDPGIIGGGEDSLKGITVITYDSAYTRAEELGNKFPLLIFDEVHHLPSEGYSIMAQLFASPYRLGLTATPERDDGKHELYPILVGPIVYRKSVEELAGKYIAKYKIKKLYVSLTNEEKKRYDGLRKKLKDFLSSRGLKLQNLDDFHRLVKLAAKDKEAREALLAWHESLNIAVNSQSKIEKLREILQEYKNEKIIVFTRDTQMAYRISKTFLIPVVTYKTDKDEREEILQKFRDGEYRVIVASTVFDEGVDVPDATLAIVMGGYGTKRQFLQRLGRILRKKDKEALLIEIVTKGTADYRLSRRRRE

AfXPB = molecular target: T3, AfXPB (Archaeoglobus fulgidus, UniProt O29889 1-452)
T3 sequence: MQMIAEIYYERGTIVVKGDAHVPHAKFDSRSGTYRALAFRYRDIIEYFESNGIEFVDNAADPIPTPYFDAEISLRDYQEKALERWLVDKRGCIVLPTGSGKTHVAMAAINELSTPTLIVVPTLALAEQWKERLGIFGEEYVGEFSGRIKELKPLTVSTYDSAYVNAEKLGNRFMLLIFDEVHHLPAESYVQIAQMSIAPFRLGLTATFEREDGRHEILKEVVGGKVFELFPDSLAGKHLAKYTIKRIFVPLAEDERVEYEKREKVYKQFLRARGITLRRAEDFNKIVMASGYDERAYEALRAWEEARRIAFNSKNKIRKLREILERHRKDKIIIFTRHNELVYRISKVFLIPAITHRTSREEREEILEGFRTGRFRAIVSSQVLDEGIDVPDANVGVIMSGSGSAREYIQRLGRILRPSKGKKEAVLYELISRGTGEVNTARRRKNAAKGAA

B1: 17mer well-matched duplex (WM) (dsDNA)
DNA 1: GAGATATAAAGCACGCA
DNA 2: TGCGTGCTTTATATCTC
modifications: strand 1 5' C6 thiol on gold electrode; strand 2 5'-terminal T is Nile Blue-modified (5-acrylate dU)
B1 showed a Kd (StXPB1) of 0.008 ± 0.002 µM, a Kd (StXPB2) of 0.05 ± 0.01 µM and a Kd (AfXPB) of 0.022 ± 0.008 µM.
